# Source: the DeepSol protein solubility set
# Experiment: soluble on expression in E. coli; label from the status in PepcDB or PDB records
row,Sequence,soluble on expression in E. coli
1,MGSDKIHHHHHHMNVPFPKRDHGGGLDAAAAEYGGDLEAWLDLSTGINPNAYPVGQLPQDIWGRLPDEGAMARLLDAARSFWSVPDGVEVIAAAGASPLIARMPDMTAFSGAYIPVPTYNEYAAAFAARGRLNDPLNPQNPVHVYVHPNNPDGRMWPGSVIGGRPLTIIDESFCDTVPDKTHMARAAEPGVIILKSFGKFWGLAGLRLGFAIAAPETFARSSSSASLQELMGPWSVSGPALEIGARALQDHAWAEATRVRLGHDAARLDDMLLSAGAEIVGGTTLFRTYAWEQGAEVWQKRLAEHRIWSRIFPYSTNWMRLGLPATDEDWARLDAAL,not soluble
2,MGSDKIHHHHHHMANSNMQATDAVAQDTASASGEFDALLNQAFRPKTTQAAKAVEAAVQTLAQQALANTITVSDDAYKSISAIIAQIDFKLTEQIKLILQHPDWQKLESSWRGMEHLVYNTETDEKLKIRFMNLSKDELRRNMKRYKGIAWDQSPMFKKLYEAEYGQLGGEPYGCIIADYYFDHTPPDVDLLGSIAKVAASAHAPFIAGASPSVLQMDSWQELANPRDLTKIVTQNLEYAPWNSLRASEDSRYIGLTMPRFLARLPYGAKTNPVDEFDFEEDADGSDHTKYVWSNAAYAMGVNINRSFKHYGWCTLIRGVESGGAVENLPCHTFPTDDGGVDMKCPTEIAISDRREAELAKNGFIPLIHRKNSDYAAFIGAQSLQKPQEYYDPDATANANLSARLPYLFACSRFAHFLKCIVRDKIGSFKEREDMQRWLNEWIMNYVDADPVNSSQETKARRPLAAAEVVVEEVEGNPGYYDAKFFLRPHFQLEGLTGSLRLVTKLPSVKQGNA,not soluble
3,MTARYIAIDWGSTNLRAWLYQGEECLESRQSEAGVTRLNGRSPAAVLAEITQHWRDGATPVVMAGMVGSNVGWKIAPYLPLPAAFSDIGQQLTAVGDNIWIIPGLCVSRDDNHNVMRGEETQLLGARALAPSSVYVMPGTHCKWVLADRRQIHDFRTVLTGELHHLLLQLSLVGAGLPPQETSAAAFAAGLQRGINNPAVLPQLFEVRASHVLGALPREQVSEFLSGLLIGAEVATLSDTFAGQQAISLVAGSSLTSRYQQAFAAIGREVSAVAGDTAFQTGIRSIAYAVAN,soluble
4,MLRDTFANTLKDALKARDARRTSTVRLIQAAVKDRDIANRGVGKDPVSDEDIMQILTKMVKQREESATIYEGAGRPELAAQEREEIVIIKEFMPEEIPAEKVRELCQAVISETGASGLRDMGKCMNALKERYPGQIDFAKASGVVKDLLK,not soluble
5,MSLADTLMSDTPFWQRKTLDEMTDAEWESLCDGCGQCCLHKLMDEDTDEIYFTNVACRQLNIKTCQCRHYERRFEFEPDCIKLTRENLPDFEWLPMTCAYRLLAEGKPLPTWHPLLTGSKAAMHGERISVRHIAVKESEVRDWQDHILNKPSWAEEGHHHHHH,not soluble
6,MSNIFLSLEPKILWSHFYRLTQIPRPSGHEEAVRTYVADVAKRCGLEWLVDEAGNIIVRKPASAGMERRRGVILQAHLDMVPQKNAGTAHDFTKDPIDAVIDGEWVHARGTTLGADNGIGVAAALAVLESDDLRHGPLEALFTVNEEAGMTGALGLKPGVLRGDILLNLDSEDEGELFIGCAGGLDGTMRFDYSCEPLPPGYSGIEIRVSGLRGGHSGMDIDLGRGNANKIMNRLLQMGREHHGLLLASIDGGSLRNAIPRESVALVAVPSAQKVAFLDELHSLASAIGLELNGVDPELRVEAADAALPVGMIDDTVAQRLFDAVAACPNGVHRMSEAMAGLVETSNNLARVHSDGRAVSVECLLRSASVEGMRELADAVAGIAERAGTVAAFENGYPGWKPNPASPILKCMVKVYRDRFGKTPEIRAVHAGLECGIIGANNPQLDMISFGPTIRHPHSPDEKVECSSVLKFWELLVATLEEVPEPLEHHHHHH,not soluble
7,MEKRGKVWLAVSGLVATKDGRWLFVKKKYSGLKGKWSLPAGFVNEGETVDEAVKREVLEETGIVAHVKGIIGVRSGVIRNEISDNMIIFLLEPEGENIIIQEKELSEVAFLHPDKIVDDPNTSVLIKYLLEGRSELHLEVDKTLNPGEPFGYTAYHVFTARAKERGKE,not soluble
8,MIMDLASLRAQQIELASSVIREDRLDKDPPDLIAGADVGFEQGGEVTRAAMVLLKYPSLELVEYKVARIATTMPYIPGFLSFREYPALLAAWEMLSQKPDLVFVDGHGISHPRRLGVASHFGLLVDVPTIGVAKKRLCGKFEPLSSEPGALAPLMDKGEQLAWVWRSKARCNPLFIATGHRVSVDSALAWVQRCMKGYRLPEPTRWADAVASERPAFVRYTANQPLEHHHHHH,soluble
9,MKIAAIYTQSVGPLPDGEIRFENDWSGEIESNVLITGPNGCGKSTLLRAISLLWRAFGHWLGTGTRLNIKDESYTWFYRWDASCAMILDSFSPKSEDQIGLFLGSEAFLVQLKEKYPQVYWLGETVSRTKGTTPETTVFTSSEHFFLPYKNWWSHWSSQYQRLVLKGPSVDMPNLVYLDAEARRWVRPQKDIGSLSPDDSTQAWLATYEVNDNWKGQLESSLFNMKATMPGEYPEMIATLNQFFSGKRIEAEIHPGQRQRVLLDSGNDHSLDALSSGEHQVLIMLFTVQRWLQPGGVVLIDEPDLHLHPSLISPLLASIENIVARKNGQLVMTSHATDIWQRYDNMGLRIDLTDGKDAENGQR,not soluble
10,MGSDKIHHHHHHMSTIGSDLYNSLGLTTSSKVAKKEDALGQADFLKLMTEQLQHQDPLKPMENSAFLGQLAQFSTVQGIGDLNTKVGNFSDSMNSDQVLKGAALVGHNVLVPSAQVAIDATGSAKGVVAATSAGFVNFEITDANGTFVKQLSVPASAAGEVSFAWDGTDANGNRMAAGKYGITATQTDTAGAKSKLATYVDAPVDSVTIGSDGLYLNLTGLGTSPLANVLRVS,not soluble
11,MKDREIFAGLSTTVPFVLRLDGRSFHRFSKDRYKKPYDKVFSDAMVKTARALVTDSGLSPSFAYTFSDEISLYVPAPVFDCRVEKLASVSAAFAASAFTLYAGASEPLAFDARVIPIEEGLFPAYLSWRQAEAWRNHMNGYAQKILQDEGVSPTNAQKQLDGMNAAALHEFAFSRGVNLALTPAWERRGICIYRDVVMRDGYNPIKDEKVSVERTIAVIDEDVPLFKSPEGTAWVLSKIRLEHHHHHH,not soluble
12,MGSDKIHHHHHHMILTKEKSLNAGPIYGTGEGVAHSKRWYVALVRMHHEKKVSEYLNKVGIENFVPVQKEIHQWSDRRKLVESVLLPMMVFVHADPKERMEVLNFTTVSRYMVMRGESSPAVIPDDQMARFRFMLDYSDETVCMNSSPLARGEKVQVIKGPLQGLVGELVNVDGKSKIAVRLNMLGCACVDMPIGYVEPIGEKN,not soluble
13,MSLQTSPDMFINRELSWLRFNSRVLDQCSKNLPLLEKLKFIAIYCTNLDEFYMIRVAGLKQLFSAGVNASSSDEMTPLQQLKAIRKYLHQEKELLERYFNEITSELEKENLFIKHYENLDENLKQKCDEYFFSNIFPVIVPIAVDATHPFPHLNNLSFSLAVKICDKAHPELVKFGMIRIPRVLPRFYEVSANIYVPIESIVHQHAEEIFPGYKLLASAAFRVTRNADMVIEEEEADDFMMILEQGLKLRRKGAFVRLQIQKDADEQIVEFLNTHMKIFHKDVYEYSILLNLPSLWQIAGNKTFTHLLSPLYTPKTLPPFDENLSIFDAVEKEDILIIQPFESFDPVYKFIKEASKDPEVISIRMTLYRVEKNSNIVQALIDAASDGKQVTVMVELKARFDEENNLHWAKALENAGAHVIYGITGFKVHAKVSQVIRKQGDKLKFYMHLSTGNYNASSAKIYTDVSYFTSKAEFARDTTSFFHILSGFSKNRRLQTLSMSPNQIKEKVLEMIRIETSKKNEGVIVAKMNSLVDSDIIQALYEASMEGVQIDLIIRGICCLKPDEEYSKNIRVRSIIGKYLEHARVFYFKHSEPNYFISSADWMPRNLERRLELMTPIYDERSKAKLAQFLRLQLSDNVLAYELKNNGEYEKIPSSEKIIDSQQTLEEYVSKIYKTLKKDTDQSRATHLASKLFKENEGHHHHHH,soluble
14,MRRRSNRQYVDLSYFRETADALLFDVETNSREFTNEINTVKEEKAKWDERTPQGYTAKPISFEGADIWCSWICTVPGPRGSPWEGGEYEVSVNFHKWPIIPPICEFKTPLHHPNVDLRGSIYLKMLEQEHWSSETSLKKLLREISNLLATPDLTQAANIEAWMEYENQRENYEAKARAYAWTVNPNAVGYMEVSENSGIQRETAKAKLAVQNGAMESDEDDDDLPIDIEN,not soluble
15,MGSDKIHHHHHHMDAILMSLMTALNEHLLINVYQRDTDDFYTGYVQVLGHDAVVLGTYNDSGIADGCALIAFSAIDQVEFAGDDLDSMNFRINLAQAQHFLTLQGQEKPLQFDATQNLIQQLATQAKANGQMVMVVVADDDAYLEGQVTAVAEDRFSMAIFNKFNYTDVRALQVDFSDILVMEFHGLDLKLETELVWQRDHLKHVATKLYQNDGQLAGVFQNALANNRLISVVPKGPEDQFFVGRVKAVNDRVVVLSLKDMAGQFGGYILLTLPSIQNVATASDYLQTISFYEKWDQTHHFSQQPVLNADREFDPNDDLIRTIISEAAGFERVVRIKVADSDEHFLGYPENVGETDFDLNLVGPDDGETAQIRYGQIREIAFGHIFAYLQEAQLKNAGR,not soluble
16,MFIKGVILSSYGVNGYARVKSISNNFCDFINLKNNKVLLKKSNSSSVEVKVVDVNIKGNSLFLKFEEIDTPEAVRPLIGFELWVDDSLASSLKEGEYYLGKLIGYAIVNNNKKLGEVVAFFEYLNSVFLEVRVGIKFFFIPFLSIYIGDINTQEKTIELKVLDLLKLEHHHHHH,not soluble
17,MHHHHHHSSGVDLGTENLYFQSNAMKEELIERFTRYVKIDTQSNEDSHTVPTTPGQIEFGKLLVEELKEVGLTEVTMDDNGYVMATLPANTDKDVPVIGFLAHLDTATDFTGKNVKPQIHENFDGNAITLNEELNIVLTPEQFPELPSYKGHTIITTDGTTLLGADDKAGLTEIMVAMNYLIHNPQIKHGKIRVAFTPDEEIGRGPAHFDVEAFGASFAYMMDGGPLGGLEYESFNAAGAKLTFNGTNTHPGTAKNKMRNATKLAMEFNGHLPVEEAPEYTEGYEGFYHLLSLNGDVEQSKAYYIIRDFDRKNFEARKNTIENIVKQMQEKYGQDAVVLEMNDQYYNMLEKIEPVREIVDIAYEAMKSLNIEPNIHPIRGGTDGSQLSYMGLPTPNIFTGGENYHGKFEYVSVDVMEKAVQVIIEIARRFEEQA,soluble
18,MRITVLILSTLLVTILNGLPIVPVVEDSISPEEVPEPSPEIEENTVPPPRVISPRVDVSVDVNEDGVLDIDEIRYAAFVHHGLSASVVEDLFKQVDTNRDNVLDAREFDAIRMLVLEKAENAALRYLQNVDTDRDGLLSLQEAQIYLLREYGIGYHDVARLWKLVPADLSDRMNSTLFSKLRRRVRGMTIRLARQIMKNADLNGDGHISVDEAQAIAFEQEGIGAGDVASMVGSVDENMDGELNAPEFADFERIIRARAIENSKKAMRVVDADNSGTLTLDEAKRVAFEHYGFDEATLAPFFGQADENEDGQLDNVEFAGFRSVIRARSVRDAMDKMKRIDTNGDGLVSNAEATDSTKKEDDMDSEETLALFNIADQNKSGKLDKVELADFNRLVRLSSIKFATDHFKEFDLDGNDAVTFDEIALLIEQKYGIPRSMIKTFFDRIDVDGSGDLMPAEIVDFRHLIRNHVSQQRQEKVYFLTL,not soluble
